According to the supplement of paper PMC10724198:
± gives the standard deviation of the averaged measurements.

Test system: Saccharomyces cerevisiae
Assay: protein stability index of tFT-peptide fusion (C-terminal peptide) (PSI (0-1 scale)); higher = more stable (slower turnover)
Conditions: genetic background: wild type; temperature: 30 C
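Further: PSI is a weighted mean of sequencing reads over stability bins, variants kept only with over 10 reads, mCherry proximal and sfGFP distal, peptide attached via GGGS linker.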

| Sequence | protein stability index |
| --- | --- |
| KTEEERKKAEKE | 0.653 ± 0.076 |
| PPPPHTPPLPRS | 0.757 ± 0.048 |
| WMAFRRIPTWSG | 0.679 ± 0.073 |
| NGSGVSEDRDEK | 0.6298 ± 0.0034 |
| SIRHPYEFFARS | 0.738 ± 0.031 |
| KVSSCLTNFILV | 0.552 ± 0.029 |
| VVPDSGESSASG | 0.654 ± 0.098 |
| YRTPCPPLSPHS | 0.719 ± 0.062 |
| ETVRPYSPMRPG | 0.674 ± 0.016 |
| PTFRLGGYYRKS | 0.703 ± 0.055 |
| GSKLTLRLSEHF | 0.686 ± 0.025 |
| TRREQYSSSNLV | 0.674 ± 0.04 |
| SWVDVGSWLGGV | 0.7108 ± 0.0043 |
| GCMVFTGGKRVL | 0.672 ± 0.03 |
| VMWVGAGVSLSC | 0.6411 ± 0.0041 |
| LVVSLSYSFRSV | 0.585 ± 0.045 |
| WRGRWVWGVGEV | 0.628 ± 0.069 |
| PIALPSPSSPIF | 0.669 ± 0.015 |
| AVFQEIPFGIPP | 0.696 ± 0.073 |
| LRDLLVFCDLFR | 0.695 ± 0.0082 |
| ALVAGGRGRRLW | 0.692 ± 0.087 |
| PPHPLLSPPPFP | 0.821 ± 0.088 |
| PFSLPPPRPPRP | 0.684 ± 0.045 |
| VSVSRGTNCCYD | 0.686 ± 0.023 |
| SYSGLLEALTTL | 0.737 ± 0.032 |
| PSLPFPPSPPPC | 0.7067 ± 0.0022 |

| Sequence | protein stability index |
| --- | --- |
| PPPPRPLPLPTT | 0.751 ± 0.056 |
| RWLGWRAGGAAG | 0.662 ± 0.071 |
| LSPTRPATRSPP | 0.6826 ± 0.0014 |
| LGLCSFGCERCH | 0.704 ± 0.015 |
| LRIRSTSSPPRP | 0.74 ± 0.015 |
| AGSAGKWCWCGG | 0.711 ± 0.039 |
| YCPVFSLPPFFR | 0.664 ± 0.086 |
| GSEVWGSPGFGG | 0.803 ± 0.0083 |
| DGGAGGLGLLGG | 0.651 ± 0.0081 |
| ELSLSCPPLETP | 0.768 ± 0.034 |
| IFKAIDQTYTDK | 0.758 ± 0.15 |
| PPPLCLHAPFPP | 0.626 ± 0.045 |
| PPRRPPPPPPLP | 0.7168 ± 0.0045 |
| AFRCGGGPGDFA | 0.6513 ± 0.0027 |
| AMLDSPRHLPSA | 0.679 ± 0.041 |
| TSCFIWGCACCR | 0.656 ± 0.058 |
| PSLLSMHSFSLC | 0.68 ± 0.014 |
| TSPPPGTHTLQP | 0.626 ± 0.023 |
| PPSPSFLPPPPP | 0.676 ± 0.024 |
| PLTPPLPPSPPP | 0.711 ± 0.026 |
| GTEKESRRKREQ | 0.698 ± 0.042 |
| STSPRSAFSPLT | 0.619 ± 0.011 |
| LQHCSAPLLTNS | 0.74 ± 0.085 |
| GRVLSEAWSEAF | 0.664 ± 0.054 |
| DFRAGPLPCRPP | 0.6952 ± 0.0041 |
| WCSVGVSGFVIR | 0.725 ± 0.0075 |

| Sequence | protein stability index |
| --- | --- |
| GLAPPRPYPPPA | 0.728 ± 0.065 |
| LGFRCLGRGPDH | 0.644 ± 0.033 |
| PRPPHLPPPVPS | 0.7299 ± 0.0016 |
| LFLGLLLMNDWL | 0.774 ± 0.096 |
| WDYQGIIFVAGG | 0.687 ± 0.0075 |
| STFQVHSLPISP | 0.702 ± 0.031 |
| VVLSASAALFTF | 0.578 ± 0.029 |
| SGKIDKGAIAIS | 0.663 ± 0.049 |
| LSSPSPSCSLPP | 0.701 ± 0.077 |
| YILSSFPSCLVL | 0.64 ± 0.034 |
| IPFPSSARLRAD | 0.708 ± 0.02 |
| VPLRLSTVSFGP | 0.746 ± 0.12 |
| PPLPPSPPFPPP | 0.653 ± 0.015 |
| YPAVNLVPPPDV | 0.675 ± 0.013 |
| ALYISLRELACP | 0.548 ± 0.018 |
| TCAGTGSTHLSR | 0.688 ± 0.035 |
| SPLDEYIDSVPA | 0.726 ± 0.017 |
| LSPPLPRAPHLS | 0.678 ± 0.077 |
| PLNQSYFVFSGN | 0.724 ± 0.019 |
| RQLLAVAELLTF | 0.677 ± 0.086 |
| LCGAFLPPPFSR | 0.686 ± 0.052 |
| KKKKTEIKRNKT | 0.689 ± 0.026 |
| LCPLPPPTVPLP | 0.742 ± 0.02 |
| CPPFLTPRLAPA | 0.778 ± 0.2 |
| AVAFELCDLTRG | 0.702 ± 0.038 |
| RNRVVPITARLT | 0.545 ± 0.014 |

| Sequence | protein stability index |
| --- | --- |
| LSTPPDLNPLIF | 0.654 ± 0.034 |
| GGGRSASGGWGC | 0.698 ± 0.024 |
| VWGLGWEFWWGV | 0.7157 ± 0.0021 |
| GPCQSPSLVLTC | 0.555 ± 0.012 |
| NTHPPPLPTTKH | 0.7393 ± 0.007 |
| AGGSGGGRDRLV | 0.694 ± 0.024 |
| PSSSYLSCLPSW | 0.703 ± 0.083 |
| PRCIELASMRRP | 0.681 ± 0.068 |
| RKRASHALTPPC | 0.732 ± 0.024 |
| TKQLKGEQERDG | 0.648 ± 0.031 |
| SFVDDILVRPIA | 0.715 ± 0.05 |
| KRRRWFILSGPL | 0.685 ± 0.008 |
| VSYEFHTRVSKN | 0.677 ± 0.039 |
| EEQKKIRKRPEK | 0.69686 ± 0.00066 |
| GGWSIVQKRRGG | 0.7215 ± 0.0034 |
| VSRWVVCRGGLW | 0.65 ± 0.078 |
| RKEGRRGRRGAK | 0.691 ± 0.069 |
| FSVLSPHPLHPL | 0.753 ± 0.093 |
| GCIPFELLECGF | 0.663 ± 0.071 |
| LSCFVFRLSWFL | 0.556 ± 0.11 |
| LFLVWSLGSGRN | 0.672 ± 0.098 |
| GWSSTLTFLGGA | 0.701 ± 0.0078 |
| YMIPVPFSNLCL | 0.66 ± 0.011 |
